# Experimental data reported in patent US10919943B2, “Mutant proteins enabling agrochemical control of plant gene expression” (The Regents of the University of California, priority 2016, dated 2021).
# Tested on: HAB1
# Test: Yeast two hybrid of pBD-PYR1 site saturation mutants with pACT-HAB1 on 10 μM ABA, β-galactosidase staining
# Type: cell-based, Arabidopsis
# Parameters: key: x: Mutations in PYR1 that disrupt ABA-induced binding to PYR1 to HAB1
# Conditions: S. cerevisiae Y190, 10 μM ABA; dead = lack of visible staining in comparison to wild type control
# Excerpt: To systematically identify mutations in PYR1 that disrupt its binding to HAB1, we utilized a collection of saturating mutations that contain all possible single amino acid substitutions in 24 conserved interface residues involved in binding HAB1, which was previously constructed for the purpose of engineering constitutively active ABA receptor variants (Mosquna et al., 2011). The interface residues previously mutagenized in this collection are the following: H60, F61, I62, K63, I84, S85, G86, L87, P88, A89, H115, R116, L117, P148, G150, N151, D154, D155, T156, M158, F159, T162, L166, K170. This set was made by mutagenizing a pBD-PYR1 template that encodes a GAL4-DNA binding domain fusion to PYR1, which can be used to assess receptor-HAB1 binding in S. cerevisiae strains co-transformed with pACT-HAB1, which expresses a GAL4 activation domain fusion to HAB1. Mutant pBD-PYR1 clones from the collection are maintained in S. cerevisiae strain Y190 co-transformed with pACT-HAB1. The test strains were spotted onto agar plates containing synthetic dextrose dropout media lacking leucine and tryptophan [SD (-Leu, -Trp)] medium supplemented with 10 μM ABA. After incubating the test plates at 30° C. for two days, colonies were chloroform lysed and stained to reveal […] expression levels and “dead” mutants were defined by lack of visible staining in comparison to a wild type control. This effort defined 237 mutations that disrupt ABA-induced binding of PYR1 to HAB1 (Table 1). Premade yeast drop out supplements (Clontech) were utilized in this and other examples for media preparation, amino acids and other standard chemicals were purchased from Sigma-Aldrich (USA). The naturally occurring (+)-ABA isomer was used in all experiments and purchased from Biosynth Ag (Switzerland).
row,Mutations in PYR1 that disrupt ABA-induced binding to PYR1 to HAB1,Molecule
1,x,"A89S: PYR1 mutant (protein, UniProt O49686 1-191, looked up, variant A89S) Abscisic acid receptor PYR1: MPSELTPEERSELKNSIAEFHTYQLDPGSCSSLHAQRIHAPPELVWSIVRRFDKPQTYKHFIKSCSVEQNFEMRVGCTRDVIVISGLPSNTSTERLDILDDERRVTGFSIIGGEHRLTNYKSVTTVHRFEKENRIWTVVLESYVVDMPEGNSEDDTRMFADTVVKLNLQKLATVAEAMARNSGDGSGSQVT"
2,x,"H115Q: PYR1 mutant (protein, UniProt O49686 1-191, looked up, variant H115Q) Abscisic acid receptor PYR1: MPSELTPEERSELKNSIAEFHTYQLDPGSCSSLHAQRIHAPPELVWSIVRRFDKPQTYKHFIKSCSVEQNFEMRVGCTRDVIVISGLPANTSTERLDILDDERRVTGFSIIGGEQRLTNYKSVTTVHRFEKENRIWTVVLESYVVDMPEGNSEDDTRMFADTVVKLNLQKLATVAEAMARNSGDGSGSQVT"
3,x,"A89D: PYR1 mutant (protein, UniProt O49686 1-191, looked up, variant A89D) Abscisic acid receptor PYR1: MPSELTPEERSELKNSIAEFHTYQLDPGSCSSLHAQRIHAPPELVWSIVRRFDKPQTYKHFIKSCSVEQNFEMRVGCTRDVIVISGLPDNTSTERLDILDDERRVTGFSIIGGEHRLTNYKSVTTVHRFEKENRIWTVVLESYVVDMPEGNSEDDTRMFADTVVKLNLQKLATVAEAMARNSGDGSGSQVT"
4,x,"H115M: PYR1 mutant (protein, UniProt O49686 1-191, looked up, variant H115M) Abscisic acid receptor PYR1: MPSELTPEERSELKNSIAEFHTYQLDPGSCSSLHAQRIHAPPELVWSIVRRFDKPQTYKHFIKSCSVEQNFEMRVGCTRDVIVISGLPANTSTERLDILDDERRVTGFSIIGGEMRLTNYKSVTTVHRFEKENRIWTVVLESYVVDMPEGNSEDDTRMFADTVVKLNLQKLATVAEAMARNSGDGSGSQVT"
5,x,"A89E: PYR1 mutant (protein, UniProt O49686 1-191, looked up, variant A89E) Abscisic acid receptor PYR1: MPSELTPEERSELKNSIAEFHTYQLDPGSCSSLHAQRIHAPPELVWSIVRRFDKPQTYKHFIKSCSVEQNFEMRVGCTRDVIVISGLPENTSTERLDILDDERRVTGFSIIGGEHRLTNYKSVTTVHRFEKENRIWTVVLESYVVDMPEGNSEDDTRMFADTVVKLNLQKLATVAEAMARNSGDGSGSQVT"
6,x,"A89F: PYR1 mutant (protein, UniProt O49686 1-191, looked up, variant A89F) Abscisic acid receptor PYR1: MPSELTPEERSELKNSIAEFHTYQLDPGSCSSLHAQRIHAPPELVWSIVRRFDKPQTYKHFIKSCSVEQNFEMRVGCTRDVIVISGLPFNTSTERLDILDDERRVTGFSIIGGEHRLTNYKSVTTVHRFEKENRIWTVVLESYVVDMPEGNSEDDTRMFADTVVKLNLQKLATVAEAMARNSGDGSGSQVT"
7,x,"A89Y: PYR1 mutant (protein, UniProt O49686 1-191, looked up, variant A89Y) Abscisic acid receptor PYR1: MPSELTPEERSELKNSIAEFHTYQLDPGSCSSLHAQRIHAPPELVWSIVRRFDKPQTYKHFIKSCSVEQNFEMRVGCTRDVIVISGLPYNTSTERLDILDDERRVTGFSIIGGEHRLTNYKSVTTVHRFEKENRIWTVVLESYVVDMPEGNSEDDTRMFADTVVKLNLQKLATVAEAMARNSGDGSGSQVT"
8,x,"H115L: PYR1 mutant (protein, UniProt O49686 1-191, looked up, variant H115L) Abscisic acid receptor PYR1: MPSELTPEERSELKNSIAEFHTYQLDPGSCSSLHAQRIHAPPELVWSIVRRFDKPQTYKHFIKSCSVEQNFEMRVGCTRDVIVISGLPANTSTERLDILDDERRVTGFSIIGGELRLTNYKSVTTVHRFEKENRIWTVVLESYVVDMPEGNSEDDTRMFADTVVKLNLQKLATVAEAMARNSGDGSGSQVT"
9,x,"A89T: PYR1 mutant (protein, UniProt O49686 1-191, looked up, variant A89T) Abscisic acid receptor PYR1: MPSELTPEERSELKNSIAEFHTYQLDPGSCSSLHAQRIHAPPELVWSIVRRFDKPQTYKHFIKSCSVEQNFEMRVGCTRDVIVISGLPTNTSTERLDILDDERRVTGFSIIGGEHRLTNYKSVTTVHRFEKENRIWTVVLESYVVDMPEGNSEDDTRMFADTVVKLNLQKLATVAEAMARNSGDGSGSQVT"
10,x,"A89H: PYR1 mutant (protein, UniProt O49686 1-191, looked up, variant A89H) Abscisic acid receptor PYR1: MPSELTPEERSELKNSIAEFHTYQLDPGSCSSLHAQRIHAPPELVWSIVRRFDKPQTYKHFIKSCSVEQNFEMRVGCTRDVIVISGLPHNTSTERLDILDDERRVTGFSIIGGEHRLTNYKSVTTVHRFEKENRIWTVVLESYVVDMPEGNSEDDTRMFADTVVKLNLQKLATVAEAMARNSGDGSGSQVT"
11,x,"H115A: PYR1 mutant (protein, UniProt O49686 1-191, looked up, variant H115A) Abscisic acid receptor PYR1: MPSELTPEERSELKNSIAEFHTYQLDPGSCSSLHAQRIHAPPELVWSIVRRFDKPQTYKHFIKSCSVEQNFEMRVGCTRDVIVISGLPANTSTERLDILDDERRVTGFSIIGGEARLTNYKSVTTVHRFEKENRIWTVVLESYVVDMPEGNSEDDTRMFADTVVKLNLQKLATVAEAMARNSGDGSGSQVT"
12,x,"H115P: PYR1 mutant (protein, UniProt O49686 1-191, looked up, variant H115P) Abscisic acid receptor PYR1: MPSELTPEERSELKNSIAEFHTYQLDPGSCSSLHAQRIHAPPELVWSIVRRFDKPQTYKHFIKSCSVEQNFEMRVGCTRDVIVISGLPANTSTERLDILDDERRVTGFSIIGGEPRLTNYKSVTTVHRFEKENRIWTVVLESYVVDMPEGNSEDDTRMFADTVVKLNLQKLATVAEAMARNSGDGSGSQVT"
13,x,"A89I: PYR1 mutant (protein, UniProt O49686 1-191, looked up, variant A89I) Abscisic acid receptor PYR1: MPSELTPEERSELKNSIAEFHTYQLDPGSCSSLHAQRIHAPPELVWSIVRRFDKPQTYKHFIKSCSVEQNFEMRVGCTRDVIVISGLPINTSTERLDILDDERRVTGFSIIGGEHRLTNYKSVTTVHRFEKENRIWTVVLESYVVDMPEGNSEDDTRMFADTVVKLNLQKLATVAEAMARNSGDGSGSQVT"
14,x,"A89C: PYR1 mutant (protein, UniProt O49686 1-191, looked up, variant A89C) Abscisic acid receptor PYR1: MPSELTPEERSELKNSIAEFHTYQLDPGSCSSLHAQRIHAPPELVWSIVRRFDKPQTYKHFIKSCSVEQNFEMRVGCTRDVIVISGLPCNTSTERLDILDDERRVTGFSIIGGEHRLTNYKSVTTVHRFEKENRIWTVVLESYVVDMPEGNSEDDTRMFADTVVKLNLQKLATVAEAMARNSGDGSGSQVT"
15,x,"A89V: PYR1 mutant (protein, UniProt O49686 1-191, looked up, variant A89V) Abscisic acid receptor PYR1: MPSELTPEERSELKNSIAEFHTYQLDPGSCSSLHAQRIHAPPELVWSIVRRFDKPQTYKHFIKSCSVEQNFEMRVGCTRDVIVISGLPVNTSTERLDILDDERRVTGFSIIGGEHRLTNYKSVTTVHRFEKENRIWTVVLESYVVDMPEGNSEDDTRMFADTVVKLNLQKLATVAEAMARNSGDGSGSQVT"
16,x,"A89K: PYR1 mutant (protein, UniProt O49686 1-191, looked up, variant A89K) Abscisic acid receptor PYR1: MPSELTPEERSELKNSIAEFHTYQLDPGSCSSLHAQRIHAPPELVWSIVRRFDKPQTYKHFIKSCSVEQNFEMRVGCTRDVIVISGLPKNTSTERLDILDDERRVTGFSIIGGEHRLTNYKSVTTVHRFEKENRIWTVVLESYVVDMPEGNSEDDTRMFADTVVKLNLQKLATVAEAMARNSGDGSGSQVT"
